Measurements reported in PMC4068289.

Biological target: human amyloid β 1–40 carrying the A2V mutation (Aβ_(1–40A2V)) (human)
Assay: far-Western, overlay or dot blot

fold increase in the proportion of A11-stained oligomers against WT: 3 fold
Substance: human amyloid β 1–40 carrying the A2V mutation (Aβ_(1–40A2V)) (peptide)
